Results as given in PMC11833078.

Columns and labels:
[1] = target: Prp19 (Chlamydomonas reinhardtii (endogenous)); assay: cryo-EM structure; endogenous spliceosomes (C* complex) isolated at 4 °C by the same procedure from the Cdc5L-Flag and the Prp19-Flag knock-in strains: anti-FLAG M2 resin (20 mM HEPES-KOH pH 7.9, 150 mM NaCl, 1.5 mM MgCl2, 4% glycerol), FLAG peptide elution, 10-30% glycerol gradient with 0-0.1% glutaraldehyde; two reconstructions at 2.6 Å without obvious differences, one atomic model
[2] = target: Prp19-Flag (Chlamydomonas reinhardtii (endogenous)); assay: as above

| stoichiometry N [1] | stoichiometry N [2] | Substance |
| --- | --- | --- |
| 4 | – | Prp19 (natural protein) |
| – | 4 | Prp19-Flag (natural protein) |
